Experimental data published in article PMC8567202, “Phosphoinositide-binding activity of Smad2 is essential for its function in TGF-β signaling” (The Journal of Biological Chemistry, 2021).
Square brackets hold non-standard residues; d marks the D form. Ends that are not written are not given here. fluorescein = fluorescein-6-aminohexanoyl (F-Ahx); pS = N[C@@H](COP(=O)(O)O)C(=O)O; Ahx = NCCCCCC(=O)O

Tests used:
Conditions in all cases: both partners purified
Smad2-R427A/R428A = molecular target: T1, Smad2-R427A/R428A (UniProt Q62432 1-467, R427A | R428A); assay: fluorescence polarisation; fluorescence anisotropy; F-Ahx-labelled peptide fixed (2.5 μM in the methods, 2.5 nM in the legend), Smad2 WT or mutant varied (0-250 μM in the methods, 0-150 μM in the legend); 20 mM Tris pH 7.9, 160 mM NaCl; 10 min incubation
T1 construct: Smad2, full length, double mutant R427A/R428A; also called RR/AA; source: E. coli BL21 RIL codon plus, purified (Ni-NTA)

Smad2-K420A = molecular target: T2, Smad2-K420A (UniProt Q62432 1-467, K420A); assay: as above
T2 construct: Smad2, full length, point mutant K420A; source: E. coli BL21 RIL codon plus, purified (Ni-NTA)

Smad2-Y426A = molecular target: T3, Smad2-Y426A (UniProt Q62432 1-467, Y426A); assay: as above
T3 construct: Smad2, full length, point mutant Y426A; source: E. coli BL21 RIL codon plus, purified (Ni-NTA)

Smad2-E425K = molecular target: T4, Smad2-E425K (UniProt Q62432 1-467, E425K); assay: as above
T4 construct: Smad2, full length, charge-reversal point mutant E425K; source: E. coli BL21 RIL codon plus, purified (Ni-NTA)

[1] = molecular target: T5, Smad2 wild type, full length (UniProt Q62432 1-467); assay: as above
T5 construct: Smad2, full length (FL), bacterially expressed from pET-30a; also called Smad2 WT; Smad2-FL; source: E. coli BL21 RIL codon plus, purified (Ni-NTA)

Smad2-W422A = molecular target: T6, Smad2-W422A (UniProt Q62432 1-467, W422A); assay: as above
T6 construct: Smad2, full length, point mutant W422A; source: E. coli BL21 RIL codon plus, purified (Ni-NTA)

[2] = molecular target: T5, Smad2 wild type, full length; assay: fluorescence polarisation; fluorescence anisotropy as a1, in the presence of 50 μM POPC/POPS/PI(4,5)P2 (77:20:3) LUVs
[3] = molecular target: T5, Smad2 wild type, full length; assay: fluorescence polarisation; fluorescence anisotropy; F-Ahx-labelled peptide fixed (2.5 μM in the methods, 2.5 nM in the legend), Smad2 WT or mutant varied (0-250 μM in the methods, 0-150 μM in the legend); 20 mM Tris pH 7.9, 160 mM NaCl; 10 min incubation; remark: listed apart in the source

T5 sequence (Q62432 whole entry): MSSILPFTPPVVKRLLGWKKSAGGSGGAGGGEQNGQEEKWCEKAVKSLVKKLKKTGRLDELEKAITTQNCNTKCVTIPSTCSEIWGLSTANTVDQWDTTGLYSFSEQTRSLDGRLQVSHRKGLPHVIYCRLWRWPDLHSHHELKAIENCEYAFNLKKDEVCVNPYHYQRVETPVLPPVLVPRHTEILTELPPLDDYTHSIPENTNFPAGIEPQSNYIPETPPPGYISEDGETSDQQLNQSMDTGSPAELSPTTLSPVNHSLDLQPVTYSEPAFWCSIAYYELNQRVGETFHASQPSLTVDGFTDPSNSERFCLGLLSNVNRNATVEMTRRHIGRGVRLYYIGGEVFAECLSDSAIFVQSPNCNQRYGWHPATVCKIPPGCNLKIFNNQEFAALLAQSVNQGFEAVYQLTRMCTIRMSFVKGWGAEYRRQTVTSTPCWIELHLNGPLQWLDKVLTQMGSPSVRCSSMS
T2 sequence (Q62432 whole entry K420A): as the sequence (Q62432 whole entry) above, with K420A counted along it
T3 sequence (Q62432 whole entry Y426A): as the sequence (Q62432 whole entry) above, with Y426A counted along it
T1 sequence (Q62432 whole entry R427A/R428A): as the sequence (Q62432 whole entry) above, with R427A, R428A counted along it
T6 sequence (Q62432 whole entry W422A): as the sequence (Q62432 whole entry) above, with W422A counted along it
T4 sequence (Q62432 whole entry E425K): as the sequence (Q62432 whole entry) above, with E425K counted along it

| Binder | Kd (Smad2-R427A/R428A) [µM] | Kd (Smad2-K420A) [µM] | Kd (Smad2-Y426A) [µM] | Kd (Smad2-E425K) [µM] | Kd [1] [µM] | Kd (Smad2-W422A) [µM] | Kd [2] [µM] | Kd [3] [µM] |
| --- | --- | --- | --- | --- | --- | --- | --- | --- |
| {fluorescein-Ahx}-YDMTT[pS]G[pS]G[pS]GLPLL (type I TGF-β receptor (TβRI), GS region, triply phosphorylated; also called GS peptide; TβRI peptide; source: synthetic peptide; bought: AlanScientific) [TβRI GS region peptide (F-Ahx-YDMTTpSGpSGpSGLPLL)] | 44 | 200 | 20 | 8 | 20 | 21 | 0.06 ± 0.007 | 0.02 ± 0.006 |
| {fluorescein-Ahx}-ADNKDNGT (type I TGF-β receptor (TβRI), L45 loop; also called L45 peptide; L45 loop peptide; source: synthetic peptide; bought: AlanScientific) [TβRI L45 loop region peptide (F-Ahx-ADNKDNGT)] | 75 | 100 | 70 | 55 | 66 | 67 |  |  |
